Test results published in patent US20230256057A1.

Target: IL-7 receptor (human) (UniProt P16871)
Experiment: cell-based or functional assay

UniProt P16871, sequence (P16871 21-459, chain 1 of 2): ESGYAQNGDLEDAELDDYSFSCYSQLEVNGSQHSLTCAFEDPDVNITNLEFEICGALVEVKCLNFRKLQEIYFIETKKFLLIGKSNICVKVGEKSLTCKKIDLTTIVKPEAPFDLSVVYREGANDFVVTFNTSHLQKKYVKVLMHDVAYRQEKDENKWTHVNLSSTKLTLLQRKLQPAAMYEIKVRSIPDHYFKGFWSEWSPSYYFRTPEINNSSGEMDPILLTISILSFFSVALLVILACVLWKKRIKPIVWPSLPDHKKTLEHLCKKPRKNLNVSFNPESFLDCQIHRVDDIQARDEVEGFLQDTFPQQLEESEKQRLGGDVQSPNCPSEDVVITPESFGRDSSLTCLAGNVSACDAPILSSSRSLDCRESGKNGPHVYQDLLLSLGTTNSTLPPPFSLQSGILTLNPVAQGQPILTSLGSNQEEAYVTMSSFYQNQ
UniProt P16871, sequence (P31785 23-369, chain 2 of 2, further chain): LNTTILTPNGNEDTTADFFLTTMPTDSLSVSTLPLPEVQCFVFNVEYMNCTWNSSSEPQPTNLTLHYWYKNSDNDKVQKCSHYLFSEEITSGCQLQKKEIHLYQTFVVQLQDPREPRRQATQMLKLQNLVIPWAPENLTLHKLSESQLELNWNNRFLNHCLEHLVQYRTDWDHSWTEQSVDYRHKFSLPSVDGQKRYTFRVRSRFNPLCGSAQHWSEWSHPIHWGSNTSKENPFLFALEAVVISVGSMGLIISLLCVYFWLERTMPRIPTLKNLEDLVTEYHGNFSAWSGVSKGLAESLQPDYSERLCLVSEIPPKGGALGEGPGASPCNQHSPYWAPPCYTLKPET

pSTAT5 expression in CD3+ T cells of COVID19+ patients' whole blood, ratio to unstimulated condition; supernatant dilution 1/2.5: 6.5 fold
pSTAT5 expression in CD3+ T cells of COVID19+ patients' whole blood, ratio to unstimulated condition; supernatant dilution 1/5: 5.7 fold
pSTAT5 expression in CD3+ T cells of COVID19+ patients' whole blood, ratio to unstimulated condition; supernatant dilution 1/10: 4.9 fold
Substance: human interleukin-7 fused to human Fc sequence of IgG2 (hIL-7-Fc) (Fc fusion)
